Experimental data as given in US7025971 (WASHINGTON UNIVERSITY, dated 2006).
Where no end group is shown, it is not given here.

B4: PapD (wild type) (other)
chain: AVSLDRTRAVFDGSEKSMTLDISNDNKQLPYLAQAWIENENQEKIITGPVIATPPVQRLEPGAKSMVRLSTTPDISKLPQDRESLFYFNLREIPPRSEKANVLQIALQTKIKLFYRPAAIKTRPNEVWQDQLILNKVSGGYRIENPTPYYVTVIGLGGSEKQAEEGEFETVMLSPRSEQTVKSANYNTPYLSYINDYGGRPVLSFICNGSRCSVKKEK
notes: also called WT PapD; native PapD

What was measured:
PapD (wild type) [1] = biological target: B4; experiment: soluble inhibition ELISA: 25-fold molar excess of peptide, 100 pmol/well PapD, G1′-19′WT-coated wells
PapD (wild type) [2] = biological target: B4; experiment: inhibition ELISA: PapD preincubated with peptide, MBP-G1′-140′-coated wells
PapD Arg-8-Ala = biological target: T1, PapD Arg-8-Ala (E. coli, UniProt P15319 22-239); experiment: native polyacrylamide gel mobility shift
T1 construct: also called R8A; pR8A
T1 sequence: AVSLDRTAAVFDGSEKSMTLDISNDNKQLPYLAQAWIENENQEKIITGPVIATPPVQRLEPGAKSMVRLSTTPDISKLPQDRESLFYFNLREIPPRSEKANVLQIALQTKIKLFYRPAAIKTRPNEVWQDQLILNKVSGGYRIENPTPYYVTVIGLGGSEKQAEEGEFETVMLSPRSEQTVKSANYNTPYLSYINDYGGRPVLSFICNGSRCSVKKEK

PapD Lys-112-Ala = biological target: T2, PapD Lys-112-Ala (E. coli, UniProt P15319 22-239); experiment: native polyacrylamide gel mobility shift
T2 sequence: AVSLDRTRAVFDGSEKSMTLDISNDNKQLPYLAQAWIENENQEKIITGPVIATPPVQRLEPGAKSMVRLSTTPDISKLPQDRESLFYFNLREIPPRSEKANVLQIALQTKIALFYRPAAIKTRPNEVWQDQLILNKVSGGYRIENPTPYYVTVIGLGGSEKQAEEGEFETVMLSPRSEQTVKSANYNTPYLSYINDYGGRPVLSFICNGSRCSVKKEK

PapD Arg-8-Gly = biological target: T3, PapD Arg-8-Gly (E. coli, UniProt P15319 22-239); experiment: native polyacrylamide gel mobility shift
T3 construct: also called R8G; pR8G
T3 sequence: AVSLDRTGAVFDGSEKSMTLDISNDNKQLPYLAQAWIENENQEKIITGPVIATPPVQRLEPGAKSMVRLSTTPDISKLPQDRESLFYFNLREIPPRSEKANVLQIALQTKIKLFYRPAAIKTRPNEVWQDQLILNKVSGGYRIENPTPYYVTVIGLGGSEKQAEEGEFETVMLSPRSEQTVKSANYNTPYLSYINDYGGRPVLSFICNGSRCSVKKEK

PapD (wild type) [3] = biological target: B4; experiment: soluble inhibition ELISA on G1′-19′WT-coated wells
[4] = biological target: T4, maltose binding protein (MBP) (UniProt P0AEX9 27-392 = MBP); experiment: co-expression, amylose affinity chromatography
T4 construct: also called MBP control

[5] = biological target: T5, modified PapG peptide, Ser-9′ substituted by Cys, labelled with 5-IAF (E. coli); experiment: fluorescence intensity at 514 nm of the 5-IAF-labelled PapG peptide against increasing PapD concentration
T5 construct: also called labelled peptide; fluorescence labelled PapG analogue

PapD (wild type) [6] = biological target: B4; experiment: ELISA, peptide coated on wells, anti-PapD antiserum
PapD (wild type) [7] = biological target: B4; experiment: ELISA, peptide coated on wells, PapD in solution, anti-PapD antiserum
PapD (wild type) [8] = biological target: B4; experiment: ELISA, peptide coated on wells, PapD in solution
PapD (wild type) [9] = biological target: B4; experiment: ELISA, peptide coated on wells, 200 pmol PapD, anti-PapD antiserum
PapD (wild type) [10] = biological target: B4; experiment: ELISA, peptide coated on wells (2.5 pmol/50 µl), PapD in solution

For GKRKPGELSGSMTMVLSFP-NH2 (also called G1′-19′NH2) [G1′-19′amide], the “% Inhibition” value (PapD (wild type) [1]) was 56%.

B1: G1′-8′WT (peptide)
peptide: MTMVLSFP
notes: also called PapG 8-mer peptide; octameric peptide
B1: binds (PapD (wild type) [2]).

For TMVLSFP [G1′-7′WT], the “% Inhibition” value (PapD (wild type) [1]) was 49%.

B2: G1′-19′WT (peptide)
peptide: GKRKPGELSGSMTMVLSFP
notes: Synthetic peptide; residues numbered from the C-terminus (Pro-1′); also called PapG 19-mer peptide; G-peptide
With B2 the “% Inhibition” value (PapD (wild type) [1]) was 63%, the binding result (PapD Arg-8-Ala) was “no binding” and the binding result (PapD Lys-112-Ala) was “no binding”. B2: no binding (PapD Arg-8-Gly).

B3: G1′-19′SV (peptide)
peptide: GKRKPVELSGSMTMVLSSP
notes: Variant of G1′-19′WT with Phe-2′ to Ser and Gly-14′ to Val
B3: binds (PapD (wild type) [3]).

With B4 the binding result [4] was “no binding” and the Kd [5] was 2.5 µM.

B5: SEQ ID NO 19 (peptide)
peptide: LPATNTLMLSFDNVGG
notes: also called one of the other three second-site peptides of PapG (region 120′ to 156′)
B5: no binding (tested: 200 pmol/50 ml of PapD) (PapD (wild type) [6]).

B6: SEQ ID NO 21 (peptide)
peptide: YKMPYDQIKQLPATNT
notes: as for B5
B6: no binding (tested: 200 pmol/50 ml of PapD) (PapD (wild type) [6]).

B7: SEQ ID NO 22 (peptide)
peptide: QHHYYDLWQDHYKMPY
notes: as for B5
B7: no binding (tested: 200 pmol/50 ml of PapD) (PapD (wild type) [6]).

GILNGGDFQTTASMAMIYN (also called PapF peptide) [F1′-19′WT]: binds (PapD (wild type) [7]).

SGSMTMVLSFP (Water insoluble peptide) [G1′-11′WT]: binds (PapD (wild type) [8]).

DQIKQLPATNTLMLSF (also called site 2 peptide) [G125′-140′]: binds (PapD (wild type) [9]).

KKLEAGNYFAVLGFRVDYE (also called PapH peptide) [H1′-19′WT]: no binding (PapD (wild type) [10]).

KSVVPGDYEATATFELTYR (also called PapK peptide; K-peptide) [K1′-19′WT]: binds (PapD (wild type) [7]).

KPGELSGSMTMVLSFP [G1′-16′WT]: binds (PapD (wild type) [8]).

B8: E1′-19′WT (peptide)
peptide: QNLIAGPFSATATLVASYS
notes: Water insoluble peptide; also called PapE peptide
B8: binds (PapD (wild type) [7]).

MVLSFP [G1′-6′]: binds (PapD (wild type) [2]).
